The labels stand for the following.
B1: N-terminal peptide Aβ (1-16) (peptide)
peptide: Biotin-GGGGGDAEFRHDSGYEVHHQK
notes: Biotinylated synthetic peptide of the ELISA series
B2: HCC (101-117)-peptide (peptide)
peptide: IYAVPWQGTMTLSKSTC
notes: Synthetic peptide; also called C-terminal HCC peptide
B3: HCC (93-120)-peptide (peptide)
peptide: RKAFCSFQIYAVPWQGTMTLSKSTCQDA
notes: Synthetic peptide; also called synthetic HCC (93-120)-peptide
B4: human cystatin C (HCC) (other)
chain: SSPGKPPRLVGGPMDASVEEEGVRRALDFAVGEYNKASNDMYHSRALQVVRARKQIVAGVNYFLDVELGRTTCTKTQPNLDNCPFHDQPHLKRKAFCSFQIYAVPWQGTMTLSKSTCQDA
notes: also called intact HCC; complete HCC

No end group written: not given here. *: point of attachment. Biotin = O=C1N[C@H]2[C@H](CS[C@H]2CCCCC(=O)*)N1

Assay [1] deals with B4. Put plainly: ELISA, biotinylated Aβ-peptides on adsorbed HCC.
Assay [2] deals with T1, N-Cysteinyl-Aβ (1-40) (N-terminal Cys attached via a thioether bond to UltraLink-Iodoacetyl gel).
T1 construct: also called Cys-Aβ (1-40); immobilized Cys-Aβ-peptide
Put plainly: summary of affinity-MS, epitope excision and ELISA results.

Assay [3] deals with T1, N-Cysteinyl-Aβ (1-40). As to the kind of experiment: affinity-MS, HCC (93-120) on the immobilized Cys-Aβ (1-40) column.
For assay [4], the target named is T2, β-amyloid (Aβ) Aβ (1-40).
T2 construct: also called Aβ-peptide
As to the kind of experiment: affinity-MS, Aβ (1-40) on the HCC micro-column.

Regarding B1, the binding result in assay [1] is “no binding”.

Regarding B2, the binding result in assay [2] is “binds”. As to B3, the binding result in assay [3] is given as “binds”.

For B4, the binding result in assay [4] was “binds”.

The values above are taken from patent EP2090664A1 (Universität Konstanz, dated 2009).
